Test results published in paper PMC9482650, “Quantitative fragmentomics allow affinity mapping of interactomes” (Nature Communications, 2022).

T1: MPP7, Q5T2T1
T1 sequence (Q5T2T1 134-230, limits assumed, looked up): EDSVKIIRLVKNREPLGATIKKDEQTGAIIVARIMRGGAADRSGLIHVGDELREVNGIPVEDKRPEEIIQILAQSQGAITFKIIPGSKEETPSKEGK

T2: MPDZ_10, O75970
T2 sequence (O75970 1624-1722, limits assumed, looked up): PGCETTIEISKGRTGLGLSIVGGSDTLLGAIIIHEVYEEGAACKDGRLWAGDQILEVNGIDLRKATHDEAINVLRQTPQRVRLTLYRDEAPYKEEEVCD

T3: RAPGEF6, Q8TEU7
T3 sequence (Q8TEU7 525-625, limits assumed, looked up): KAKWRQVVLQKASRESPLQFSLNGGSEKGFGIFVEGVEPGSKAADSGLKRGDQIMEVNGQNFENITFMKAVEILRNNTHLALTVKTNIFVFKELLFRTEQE

T4: DFNB31_2, Q9P202
T4 sequence (Q9P202 274-371, limits assumed, looked up): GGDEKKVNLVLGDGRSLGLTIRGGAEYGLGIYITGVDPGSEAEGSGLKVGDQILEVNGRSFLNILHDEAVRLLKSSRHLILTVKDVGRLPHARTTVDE

T5: MPP6, Q9NZW5
T5 sequence (Q9NZW5 125-219, limits assumed, looked up): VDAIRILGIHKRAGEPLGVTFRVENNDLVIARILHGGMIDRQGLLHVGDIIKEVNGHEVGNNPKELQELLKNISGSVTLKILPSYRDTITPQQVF

T6: MPDZ_5, O75970
T6 sequence (O75970 695-796, limits assumed, looked up): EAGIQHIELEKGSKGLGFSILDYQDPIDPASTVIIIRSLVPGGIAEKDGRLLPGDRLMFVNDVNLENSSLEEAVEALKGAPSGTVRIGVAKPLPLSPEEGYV

T7: GRIP1_2, Q9Y3R0
T7 sequence (Q9Y3R0 145-248, limits assumed, looked up): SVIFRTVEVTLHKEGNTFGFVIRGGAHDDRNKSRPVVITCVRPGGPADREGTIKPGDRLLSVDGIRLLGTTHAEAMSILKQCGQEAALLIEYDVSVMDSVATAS

T8: GRIP1_7, Q9Y3R0
T8 sequence (Q9Y3R0 999-1096, limits assumed, looked up): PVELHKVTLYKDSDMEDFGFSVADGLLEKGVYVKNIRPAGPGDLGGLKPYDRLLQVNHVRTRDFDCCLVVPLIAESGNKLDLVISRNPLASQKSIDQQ

T9: RADIL, Q96JH8
T9 sequence (Q96JH8 971-1071, limits assumed, looked up): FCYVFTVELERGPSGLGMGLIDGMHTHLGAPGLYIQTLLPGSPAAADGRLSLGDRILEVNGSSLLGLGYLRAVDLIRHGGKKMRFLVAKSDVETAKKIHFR

T10: LRRC7, Q96NW7
T10 sequence (Q96NW7 1440-1537, limits assumed, looked up): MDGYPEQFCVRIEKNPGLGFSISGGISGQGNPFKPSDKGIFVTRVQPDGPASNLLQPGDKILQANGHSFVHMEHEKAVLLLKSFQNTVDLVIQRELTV


These binders were tested against T1, MPP7, Q5T2T1 (assay: holdup assay). Settings: plain residues with an end cap or a label only (N-terminal biotin on a linker: ado-ado).
Set-up: key: below the threshold = too weak to quantify, mostly under pKd 3.1 to 4

Binder	pKd
LPPPESESKV [KCNJ9, Q92806]	below the threshold

What follows are binders tested against T2, MPDZ_10, O75970 (assay: holdup assay). Settings: plain residues with an end cap or a label only (N-terminal biotin on a linker: ado-ado).
Set-up: key: below the threshold = too weak to quantify, mostly under pKd 3.1 to 4

Binder	pKd
LPPPESESKV [KCNJ9, Q92806]	below the threshold

The binders below were run against HTRA2, O43464 (assay: holdup assay). Settings: plain residues with an end cap or a label only (N-terminal biotin on a linker: ado-ado).
Set-up: key: below the threshold = too weak to quantify, mostly under pKd 3.1 to 4

Sequence of HTRA2, O43464 (O43464 355-458): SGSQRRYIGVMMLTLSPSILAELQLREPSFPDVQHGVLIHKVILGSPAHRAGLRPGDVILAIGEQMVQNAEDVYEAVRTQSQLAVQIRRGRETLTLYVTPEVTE

Binder	pKd
LPPPESESKV [KCNJ9, Q92806]	below the threshold

These binders were tested against MAGI2_3, Q86UL8 (assay: holdup assay). Settings: plain residues with an end cap or a label only (N-terminal biotin on a linker: ado-ado).
Set-up: key: below the threshold = too weak to quantify, mostly under pKd 3.1 to 4

Sequence of MAGI2_3, Q86UL8 (Q86UL8 600-682): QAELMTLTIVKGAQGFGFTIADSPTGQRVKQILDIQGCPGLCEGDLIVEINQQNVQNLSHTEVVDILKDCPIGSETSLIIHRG

Binder	pKd
LPPPESESKV [KCNJ9, Q92806]	3.64

These binders were tested against FRMPD4, Q14CM0 (assay: holdup assay). Settings: plain residues with an end cap or a label only (N-terminal biotin on a linker: ado-ado).
Set-up: key: below the threshold = too weak to quantify, mostly under pKd 3.1 to 4

Sequence of FRMPD4, Q14CM0 (Q14CM0 67-160): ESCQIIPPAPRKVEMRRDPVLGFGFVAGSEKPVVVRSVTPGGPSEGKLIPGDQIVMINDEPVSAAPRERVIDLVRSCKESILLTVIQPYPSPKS

Binder	pKd
LPPPESESKV [KCNJ9, Q92806]	below the threshold

These binders were tested against FRMPD2_3, Q68DX3 (assay: holdup assay). Settings: plain residues with an end cap or a label only (N-terminal biotin on a linker: ado-ado).
Set-up: key: below the threshold = too weak to quantify, mostly under pKd 3.1 to 4

Sequence of FRMPD2_3, Q68DX3 (Q68DX3 1073-1166): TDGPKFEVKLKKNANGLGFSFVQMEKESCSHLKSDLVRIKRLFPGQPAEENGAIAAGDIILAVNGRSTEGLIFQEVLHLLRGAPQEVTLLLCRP

Binder	pKd
LPPPESESKV [KCNJ9, Q92806]	below the threshold

What follows are binders tested against DLG4_3, P78352 (assay: holdup assay). Settings: plain residues with an end cap or a label only (N-terminal biotin on a linker: ado-ado).
Set-up: key: below the threshold = too weak to quantify, mostly under pKd 3.1 to 4

Sequence of DLG4_3, P78352 (P78352 306-403): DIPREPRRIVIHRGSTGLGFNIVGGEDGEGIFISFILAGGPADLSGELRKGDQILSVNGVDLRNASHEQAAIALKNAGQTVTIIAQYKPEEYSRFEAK

Binder	pKd
LPPPESESKV [KCNJ9, Q92806]	below the threshold

These binders were tested against PTPN3, P26045 (assay: holdup assay). Settings: plain residues with an end cap or a label only (N-terminal biotin on a linker: ado-ado).
Set-up: key: below the threshold = too weak to quantify, mostly under pKd 3.1 to 4

Sequence of PTPN3, P26045 (P26045 505-587): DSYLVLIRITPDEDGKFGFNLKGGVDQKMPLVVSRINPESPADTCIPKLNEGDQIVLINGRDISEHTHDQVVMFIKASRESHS

Binder	pKd
LPPPESESKV [KCNJ9, Q92806]	4.4

What follows are binders tested against T3, RAPGEF6, Q8TEU7 (assay: holdup assay). Settings: plain residues with an end cap or a label only (N-terminal biotin on a linker: ado-ado).
Set-up: key: below the threshold = too weak to quantify, mostly under pKd 3.1 to 4

Binder	pKd
LPPPESESKV [KCNJ9, Q92806]	below the threshold

These binders were tested against T4, DFNB31_2, Q9P202 (assay: holdup assay). Settings: plain residues with an end cap or a label only (N-terminal biotin on a linker: ado-ado).
Set-up: key: below the threshold = too weak to quantify, mostly under pKd 3.1 to 4

Binder	pKd
LPPPESESKV [KCNJ9, Q92806]	below the threshold

Each binder was assayed against NHERF4_1, Q86UT5-2 (assay: holdup assay). Settings: plain residues with an end cap or a label only (N-terminal biotin on a linker: ado-ado).
Set-up: key: below the threshold = too weak to quantify, mostly under pKd 3.1 to 4

Sequence of NHERF4_1, Q86UT5-2 (Q86UT5 other isoform, or with tags, fused parts or gaps): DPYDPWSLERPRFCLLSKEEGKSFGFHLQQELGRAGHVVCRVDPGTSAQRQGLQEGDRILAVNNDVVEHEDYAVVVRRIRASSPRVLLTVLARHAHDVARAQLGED

Binder	pKd
LPPPESESKV [KCNJ9, Q92806]	below the threshold

What follows are binders tested against CASK, O14936 (assay: holdup assay). Settings: plain residues with an end cap or a label only (N-terminal biotin on a linker: ado-ado).
Set-up: key: below the threshold = too weak to quantify, mostly under pKd 3.1 to 4

Sequence of CASK, O14936 (O14936 487-570): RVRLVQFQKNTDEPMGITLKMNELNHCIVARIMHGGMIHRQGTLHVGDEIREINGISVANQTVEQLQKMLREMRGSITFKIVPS

Binder	pKd
LPPPESESKV [KCNJ9, Q92806]	below the threshold

Each binder was assayed against LDB3, O75112 (assay: holdup assay). Settings: plain residues with an end cap or a label only (N-terminal biotin on a linker: ado-ado).
Set-up: key: below the threshold = too weak to quantify, mostly under pKd 3.1 to 4

Sequence of LDB3, O75112 (O75112 1-94): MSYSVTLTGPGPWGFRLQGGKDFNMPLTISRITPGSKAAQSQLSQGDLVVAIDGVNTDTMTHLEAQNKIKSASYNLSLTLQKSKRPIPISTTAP

Binder	pKd
LPPPESESKV [KCNJ9, Q92806]	below the threshold

These binders were tested against GRIP2_6, Q9C0E4 (assay: holdup assay). Settings: plain residues with an end cap or a label only (N-terminal biotin on a linker: ado-ado).
Set-up: key: below the threshold = too weak to quantify, mostly under pKd 3.1 to 4

Sequence of GRIP2_6, Q9C0E4 (Q9C0E4 648-740): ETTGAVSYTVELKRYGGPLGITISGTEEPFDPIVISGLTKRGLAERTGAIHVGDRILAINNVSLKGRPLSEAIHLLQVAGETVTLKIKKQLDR

Binder	pKd
LPPPESESKV [KCNJ9, Q92806]	below the threshold

Each binder was assayed against MAGI2_5, Q86UL8 (assay: holdup assay). Settings: plain residues with an end cap or a label only (N-terminal biotin on a linker: ado-ado).
Set-up: key: below the threshold = too weak to quantify, mostly under pKd 3.1 to 4

Sequence of MAGI2_5, Q86UL8 (Q86UL8 915-1017): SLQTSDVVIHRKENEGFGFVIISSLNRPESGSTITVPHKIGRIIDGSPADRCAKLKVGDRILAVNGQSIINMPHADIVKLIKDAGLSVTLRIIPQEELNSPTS

Binder	pKd
LPPPESESKV [KCNJ9, Q92806]	below the threshold

Each binder was assayed against GIPC2, Q8TF65 (assay: holdup assay). Settings: plain residues with an end cap or a label only (N-terminal biotin on a linker: ado-ado).
Set-up: key: below the threshold = too weak to quantify, mostly under pKd 3.1 to 4

Sequence of GIPC2, Q8TF65 (Q8TF65 112-203): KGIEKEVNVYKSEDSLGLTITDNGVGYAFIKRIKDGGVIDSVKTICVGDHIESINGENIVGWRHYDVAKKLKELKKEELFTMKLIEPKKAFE

Binder	pKd
LPPPESESKV [KCNJ9, Q92806]	below the threshold

These binders were tested against T5, MPP6, Q9NZW5 (assay: holdup assay). Settings: plain residues with an end cap or a label only (N-terminal biotin on a linker: ado-ado).
Set-up: key: below the threshold = too weak to quantify, mostly under pKd 3.1 to 4

Binder	pKd
LPPPESESKV [KCNJ9, Q92806]	below the threshold

These binders were tested against T6, MPDZ_5, O75970 (assay: holdup assay). Settings: plain residues with an end cap or a label only (N-terminal biotin on a linker: ado-ado).
Set-up: key: below the threshold = too weak to quantify, mostly under pKd 3.1 to 4

Binder	pKd
LPPPESESKV [KCNJ9, Q92806]	below the threshold

Each binder was assayed against T7, GRIP1_2, Q9Y3R0 (assay: holdup assay). Settings: plain residues with an end cap or a label only (N-terminal biotin on a linker: ado-ado).
Set-up: key: below the threshold = too weak to quantify, mostly under pKd 3.1 to 4

Binder	pKd
LPPPESESKV [KCNJ9, Q92806]	below the threshold

What follows are binders tested against T8, GRIP1_7, Q9Y3R0 (assay: holdup assay). Settings: plain residues with an end cap or a label only (N-terminal biotin on a linker: ado-ado).
Set-up: key: below the threshold = too weak to quantify, mostly under pKd 3.1 to 4

Binder	pKd
LPPPESESKV [KCNJ9, Q92806]	below the threshold

What follows are binders tested against MAST1, Q9Y2H9 (assay: holdup assay). Settings: plain residues with an end cap or a label only (N-terminal biotin on a linker: ado-ado).
Set-up: key: below the threshold = too weak to quantify, mostly under pKd 3.1 to 4

Sequence of MAST1, Q9Y2H9 (Q9Y2H9 962-1065): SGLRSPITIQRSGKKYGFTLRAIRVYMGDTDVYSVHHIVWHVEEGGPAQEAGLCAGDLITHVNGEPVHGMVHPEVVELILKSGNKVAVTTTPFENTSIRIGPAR

Binder	pKd
LPPPESESKV [KCNJ9, Q92806]	4.29

The binders below were run against T9, RADIL, Q96JH8 (assay: holdup assay). Settings: plain residues with an end cap or a label only (N-terminal biotin on a linker: ado-ado).
Set-up: key: below the threshold = too weak to quantify, mostly under pKd 3.1 to 4

Binder	pKd
LPPPESESKV [KCNJ9, Q92806]	below the threshold

What follows are binders tested against IL16_1, Q14005 (assay: holdup assay). Settings: plain residues with an end cap or a label only (N-terminal biotin on a linker: ado-ado).
Set-up: key: below the threshold = too weak to quantify, mostly under pKd 3.1 to 4

Sequence of IL16_1, Q14005 (Q14005 210-306): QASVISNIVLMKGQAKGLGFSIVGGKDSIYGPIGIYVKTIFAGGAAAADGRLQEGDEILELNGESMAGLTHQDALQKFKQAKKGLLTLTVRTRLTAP

Binder	pKd
LPPPESESKV [KCNJ9, Q92806]	4.11

What follows are binders tested against Inadl_4, Q8NI35 (assay: holdup assay). Settings: plain residues with an end cap or a label only (N-terminal biotin on a linker: ado-ado).
Set-up: key: below the threshold = too weak to quantify, mostly under pKd 3.1 to 4

Sequence of Inadl_4, Q8NI35 (Q8NI35 547-651): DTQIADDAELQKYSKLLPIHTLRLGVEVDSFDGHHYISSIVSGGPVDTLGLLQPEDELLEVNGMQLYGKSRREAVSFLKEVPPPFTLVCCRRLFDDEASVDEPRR

Binder	pKd
LPPPESESKV [KCNJ9, Q92806]	below the threshold

What follows are binders tested against T10, LRRC7, Q96NW7 (assay: holdup assay). Settings: plain residues with an end cap or a label only (N-terminal biotin on a linker: ado-ado).
Set-up: key: below the threshold = too weak to quantify, mostly under pKd 3.1 to 4

Binder	pKd
LPPPESESKV [KCNJ9, Q92806]	below the threshold

The binders below were run against Inadl_2, Q8NI35 (assay: holdup assay). Settings: plain residues with an end cap or a label only (N-terminal biotin on a linker: ado-ado).
Set-up: key: below the threshold = too weak to quantify, mostly under pKd 3.1 to 4

Sequence of Inadl_2, Q8NI35 (Q8NI35 238-335): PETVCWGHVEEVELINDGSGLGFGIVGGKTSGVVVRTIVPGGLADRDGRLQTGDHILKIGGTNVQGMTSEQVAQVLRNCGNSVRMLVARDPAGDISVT

Binder	pKd
LPPPESESKV [KCNJ9, Q92806]	below the threshold

These binders were tested against PDZRN4_1, Q6ZMN7 (assay: holdup assay). Settings: plain residues with an end cap or a label only (N-terminal biotin on a linker: ado-ado).
Set-up: key: below the threshold = too weak to quantify, mostly under pKd 3.1 to 4

Sequence of PDZRN4_1, Q6ZMN7 (Q6ZMN7 213-318): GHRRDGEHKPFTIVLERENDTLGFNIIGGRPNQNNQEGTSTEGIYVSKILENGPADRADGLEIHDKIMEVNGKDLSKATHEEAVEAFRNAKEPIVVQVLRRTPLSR

Binder	pKd
LPPPESESKV [KCNJ9, Q92806]	below the threshold

What follows are binders tested against MAGI3_2, Q5TCQ9 (assay: holdup assay). Settings: plain residues with an end cap or a label only (N-terminal biotin on a linker: ado-ado).
Set-up: key: below the threshold = too weak to quantify, mostly under pKd 3.1 to 4

Sequence of MAGI3_2, Q5TCQ9 (Q5TCQ9 398-503): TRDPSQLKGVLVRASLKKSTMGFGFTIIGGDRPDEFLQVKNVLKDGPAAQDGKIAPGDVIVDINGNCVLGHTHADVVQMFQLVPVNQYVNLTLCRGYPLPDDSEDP

Binder	pKd
LPPPESESKV [KCNJ9, Q92806]	4
